Laboratory results reported in patent US11360100B2, “Methods and compositions useful in detecting proteins” (OREGON HEALTH & SCIENCE UNIVERSITY, priority 2016, dated 2022).
Entries after “also recorded” stand apart in the source; their conditions may differ. AF647 = AlexaFluor 647; Cy5 = Cy5 cyanine dye

Experiments:
[1] = system: untagged mEmerald constructs; assay: VIPER labeling of fixed, permeabilized U-2 OS cells, untagged constructs; assay type: cell-based; settings: 100 nM probe, same acquisition settings
Method: The CoilE and CoilR peptides were assessed for their ability to label intracellular structures without perturbing normal trafficking and distribution of the tagged proteins. U-2 OS cells were transfected with mEmerald-actin-C18, mEmerald-CoilE-actin-C18, H2B-6-mEmerald, H2B-6-CoilE-mEmerald, Mito-7-mEmerald, and Mito-7-CoilE-mEmerald and fixed with 4% PFA 24 hours after transfection. Cells were then lightly permeabilized and then labeled with 100 nM CoilR-Cy5 in a blocking buffer. Cells were fixed and imaged using with line-scanning confocal microscope. […] VIPER labeling was specific, given by the colocalization of features between the VIPER(Cy5) and mEmerald signal.

[2] = target: T1, untagged TfR1 (Homo sapiens, UniProt P02786); assay: CoilR probe labeling of CHO TRVb cells expressing untagged TfR1; assay type: cell-based; settings: labeled at 4° C.
T1 construct: expressed in transfected cells; host or cells: CHO TRVb

[3] = system: CoilY-mCherry; assay: SDS-PAGE/PVDF membrane labeling of transfected HEK293FT lysates, CoilY-mCherry; assay type: binding; settings: cell lysates, SDS-PAGE, PVDF membrane
Method: The CoilY and CoilZ pair could be used to label two protein targets simultaneously. Transfected HEK293FT cell lysates from cells expressing mCherry, CoilY-mCherry, EGFP, or CoilZ-EGFP were resolved by SDS-PAGE and transferred to a PVDF membrane. The membrane was incubated sequentially with CoilZ-fluorescein and CoilY-rhodamine before imaging. GFP and mCherry fluorescence was not preserved due to SDS-PAGE protein denaturation.
(§1) A protein gel-based assay was optimized for analyzing VIP tags in vitro. Cell lysates were made from cells transfected with mCherry, CoilY-mCherry, GFP, or CoilZ-GFP, resolved by SDS-PAGE, and transferred to a membrane. GFP and mCherry fluorescence were not preserved in this experiment. The membrane was then contacted with CoilZ-fluorescein and CoilY-rhodamine before imaging. […] The probe peptides were specific for each tagged protein, and this single pair enabled specific and selective protein tagging of two distinct targets. In addition both the VIP E/R and VIP Y/Z tag sets could be used concurrently to label two recombinant proteins (DHFR and mCherry) without crosstalk (FIG. 23).

[4] = system: untagged mCherry and DHFR; assay: SDS-PAGE/PVDF membrane labeling, untagged proteins; assay type: binding; settings: lysates and purified proteins, PVDF membrane
Method: Crude lysates (lys.) and purified proteins (serial dilutions) were resolved by SDS-PAGE. Lysates were prepared from HERK 293FT cells transfected with mCherry, CoilY-mCherry, DHFR, and CoilE-DHFR. The protein gel was transferred to a PVDF membrane and then incubated with CoilZ-Fluorescein and CoilR-rhodamine. After washing, the membrane was imaged to detect VIPER labeling of DHFR (red) and VIP Y/Z labeling of mCherry (green). Untagged proteins were not labeled by either CoilR-rhodamine or CoilZ-fluorescein.
as §1

[5] = system: His6-CoilY-mCherry; assay: Detection limit comparison on PVDF membrane (peptide vs immunolabeling); assay type: binding; settings: serial dilutions 400 ng to 0.8 ng
Method: FIG. 10 is a detection limit comparison between peptide and immunolabeling. Serial dilutions of CoilY-mCherry (400 ng to 0.8 ng) were run on two identical SDS-PAGE gels before transfer to a PVDF membrane. The first membrane (top) was treated with CoilZ-fluorescein (CoilZ-FL) and imaged (ex 475/42 nm; em 537/35 nm). The second membrane (bottom) was labeled using an AF488-conjugated anti-His antibody “AF488-His” (QIAGEN, product number 35310) and imaged (475/42 nm excitation, 537/35 nm emission).
The disclosed method is a sensitive alternative to fluorescent immunoblotting. Purified His6-CoilY-mCherry was generated and the sensitivity of detection of the His6-CoilY-mCherry using our CoilZ-fluorescein was compared to that of an AF488-labeled anti-His antibody from Qiagen. CoilZ-fluorescein could detect as little as 3 ng of His6-CoilY-mCherry, while the antibody required 8-fold more target protein (FIG. 10).
Specifically, purified His6-mCherry and His6-CoilY-mCherry were loaded on a 10% SDS-PAGE gel for separation. Electrophoresis occurred at 165 V for 1 h. […]
Decreasing quantities of purified CoilY-mCherry (400 ng to 0.8 ng) were resolved by SDS-PAGE and transferred to a PVDF membrane. […] CoilY-mCherry was detected by blotting with anti-pentahistidine mouse antibody conjugated to AlexaFluor488 (1:5000, QIAGEN; product number 35310). […]

[6] = system: CoilZ-EGFP-TM; assay: Flow cytometry of probe labeling, live U-2 OS cells expressing CoilZ-EGFP-TM; assay type: cell-based, human
Source text: (§2) Cells were gated for green fluorescence and analyzed for labeling with CoilY-AF647 (A) or CoilZ-AF647 (B). Transfected cells expressed CoilZ-EGFP-TM (green), CoilY-EGFP-TM (blue), or untagged EGFP-TM (gray). Values in bold indicate the median AF647 fluorescence for each cell population.
FIGS. 25A and 25B provide flow analysis of cells treated with CoilY-AF647. In FIG. 25A U-2 OS cells were transfected with EGFP-TM or CoilZ-EGFP-TM and treated with increasing concentrations of CoilY-AF647. Single, live, green fluorescent cells expressing untagged (left) or tagged (right) EGFP-TM were counted and analyzed for labeling without probe peptide (0 nM) or with CoilY-AF647 (50, 100, 300, 500, 750, or 1000 nM). Values within each histogram indicate the median AF647 fluorescence for each cell population. Data analyzed included between 26,000 and 35,000 live, singlet GFP+ cells.
The in vitro results were translated to living cells. Flow cytometry was used to evaluate protein labeling in live human osteosarcoma (U-2 OS) cells expressing CoilZ-EGFP-TM, CoilY-EGFP-TM, or untagged EGFP-TM (FIG. 11). […]
Protein labeling was assessed as a function of CoilY-AF647 concentration (FIG. 25). […] Cells had 21- to 44-fold higher median fluorescence compared to cells expressing untagged protein. Treatment with 300 nM AF647-CoilY gave optimal labeling, with 98% of cells labeled and a 35-fold increase in AF647 fluorescence. […]

[7] = system: CoilY-EGFP-TM; assay: Flow cytometry of probe labeling, live U-2 OS cells expressing CoilY-EGFP-TM; assay type: cell-based, human; settings: 500 nM probe
Source text: as §2
(§3) The in vitro results were translated to living cells. Flow cytometry was used to evaluate protein labeling in live human osteosarcoma (U-2 OS) cells expressing CoilZ-EGFP-TM, CoilY-EGFP-TM, or untagged EGFP-TM (FIG. 11). Cells were treated with 500 nM AF647-conjugated probe peptide before analysis, and we gated for EGFP-expressing cells. […] Non-specific labeling of untagged EGFP-TM and homodimerization with CoilY-EGFP-TM were minimal for cells exposed to CoilY-AF647. Cells expressing CoilY-EGFP-TM were labeled with CoilZ-AF647, but with only a 4-fold enhancement.

[8] = system: untagged EGFP-TM; assay: Flow cytometry of probe labeling, live U-2 OS cells expressing untagged EGFP-TM; assay type: cell-based, human; settings: 500 nM probe
Method: as §3
Protein labeling was assessed as a function of CoilY-AF647 concentration (FIG. 25). Live cells expressing CoilZ-EGFP-TM or untagged EGFP-TM were treated with a range of CoilY-AF647 concentrations (50 nM to 1000 nM for 30 min at room temperature). […] Cells had 21- to 44-fold higher median fluorescence compared to cells expressing untagged protein. Treatment with 300 nM AF647-CoilY gave optimal labeling, with 98% of cells labeled and a 35-fold increase in AF647 fluorescence. Treatment with an excess of probe peptide (i.e., 1000 nM) enhanced the AF647 signal, but at the cost of a small increase in non-specific labeling.

[9] = system: CoilZ-EGFP; assay: Fluorescence microscopy labeling of cell-surface CoilZ-GFP (CoilZ-EGFP); assay type: cell-based, human
Method: (§4) Fluorescence microscopy was used to confirm that the VIP Y/Z tag set enabled selective fluorescent labeling of proteins (FIGS. 3A and 3B). CoilZ was expressed by fusion to a cell-surface localized variant of GFP (CoilZ-GFP; pDisplay vector). […] Labeling was rapid (<30 min), target-specific, and live-cell compatible. Homodimerization between a CoilZ probe peptide and CoilZ-GFP was not observed. Cells expressing untagged GFP were not labeled with the CoilY probe peptide. CoilY was also expressed fused to the cell surface localized GFP and visualized using a CoilZ-AF647 probe peptide (FIG. 3B). No homodimerization of CoilY was observed, and the labeling was specific.
(§5) It was next confirmed that the VIP Y/Z tag set could be used in two-target imaging in fixed cells (FIGS. 5B and 13). A combination of cell lines singly-transfected with mCherry, GFP, CoilY-mCherry, or CoilZ-GFP was used, as illustrated in FIG. 9. […] Then we labeled two tagged FPs in one sample using a mixed population of cells expressing either CoilY-mCherry or CoilZ-GFP.
(§6) The disclosed methods were tested in transfected human osteosarcoma cells (U-2 OS). A pDisplay vector was used to target CoilZ-EGFP and untagged EGFP to the cell surface. This construct includes a C-terminal fusion to the transmembrane domain of the platelet derived growth factor receptor. As expected, both CoilZ-EGFP and untagged EGFP localized to the cell surface, and green fluorescence was observed within 24 h of transfection. Then the cells were blocked with 6% BSA and 10% FBS for 30 minutes at 37° C. and then contacted with an AF647-conjugated CoilY probe (CoilY-AF647), 30 min at 4° C. Cells were fixed before imaging by confocal fluorescence microscopy. The probe peptides are membrane impermeant; only cell-surface EGFP was accessible to CoilY-AF647 for labeling. Colocalization of green fluorescent CoilZ-EGFP with CoilY-AF647 was observed.
(§7) The CoilY/CoilZ tag set is also compatible with live-cell imaging. CoilZ-EGFP was contacted with CoilY-AF647 in live U2OS cells. […] Homodimerization was not observed for CoilY-EGFP incubated with CoilY-AF647. Non-specific labeling of untagged GFP was not observed (FIG. 26). Cells internalize labeled targets over time. CoilZ-GFP and CoilY-AF647 co-localization was observed on the surface and in endocytic vesicles due to rapid internalization, and AF647 signal accumulated inside cells during a 40 min. long incubation at room temperature (FIG. 12).
The VIPY/Z tag set can be used to label multiple protein targets simultaneously. Cells expressing CoilY-mCherry were combined with those expressing CoilZ-EGFP-pDisplay (FIG. 9). This mixed cell population, as well as unmixed CoilZ-GFP, CoilY-mCherry, and untagged controls, were plated for imaging. […] Fluorescence was detected by confocal fluorescence imaging. […]

[10] = system: CoilY-EGFP; assay: Fluorescence microscopy labeling of cell-surface CoilY-GFP (CoilY-EGFP); assay type: cell-based, human; settings: fluorescence microscopy
Method: as §4
The CoilY/CoilZ tag set is bidirectional—either CoilZ or CoilY can serve as the probe peptide. CoilY-EGFP was expressed on the surface of U2OS cells and labeled with CoilZ-AF647. Protein labeling was rapid (<30 min) and specific; non-specific labeling of untagged EGFP was not observed. Homodimerization was not observed for either CoilZ-AF647 with CoilZ-EGFP or CoilY-AF647 with CoilY-EGFP (FIG. 3B).
as §7

[11] = system: untagged GFP/EGFP and mCherry; assay: Fluorescence microscopy, cells expressing untagged fluorescent proteins; assay type: cell-based, human
Method: as §4, §5, §6
The CoilY/CoilZ tag set is bidirectional—either CoilZ or CoilY can serve as the probe peptide. CoilY-EGFP was expressed on the surface of U2OS cells and labeled with CoilZ-AF647. […]

[12] = system: CoilY-mCherry; assay: Two-target fluorescence imaging, cells expressing CoilY-mCherry; assay type: cell-based; settings: fluorescence microscopy
Source text: as §5
The VIPY/Z tag set can be used to label multiple protein targets simultaneously. Cells expressing CoilY-mCherry were combined with those expressing CoilZ-EGFP-pDisplay (FIG. 9). This mixed cell population, as well as unmixed CoilZ-GFP, CoilY-mCherry, and untagged controls, were plated for imaging. After blocking for 30 minutes at 37° C. with 6% BSA, 10% FBS, cells were treated at 4° C. with 500 nM CoilZ-biotin for 15 min and then 500 nM CoilY-AF647 for 15 min. […] Cells were then fixed, blocked for 1 hour with 6% BSA, 10% FBS and treated with Qdot565-conjugated streptavidin in order to label CoilZ-biotin. Fluorescence was detected by confocal fluorescence imaging. […] So the CoilY/Z tag set can be used to image up to four proteins at once.

T1 sequence (P02786 whole entry): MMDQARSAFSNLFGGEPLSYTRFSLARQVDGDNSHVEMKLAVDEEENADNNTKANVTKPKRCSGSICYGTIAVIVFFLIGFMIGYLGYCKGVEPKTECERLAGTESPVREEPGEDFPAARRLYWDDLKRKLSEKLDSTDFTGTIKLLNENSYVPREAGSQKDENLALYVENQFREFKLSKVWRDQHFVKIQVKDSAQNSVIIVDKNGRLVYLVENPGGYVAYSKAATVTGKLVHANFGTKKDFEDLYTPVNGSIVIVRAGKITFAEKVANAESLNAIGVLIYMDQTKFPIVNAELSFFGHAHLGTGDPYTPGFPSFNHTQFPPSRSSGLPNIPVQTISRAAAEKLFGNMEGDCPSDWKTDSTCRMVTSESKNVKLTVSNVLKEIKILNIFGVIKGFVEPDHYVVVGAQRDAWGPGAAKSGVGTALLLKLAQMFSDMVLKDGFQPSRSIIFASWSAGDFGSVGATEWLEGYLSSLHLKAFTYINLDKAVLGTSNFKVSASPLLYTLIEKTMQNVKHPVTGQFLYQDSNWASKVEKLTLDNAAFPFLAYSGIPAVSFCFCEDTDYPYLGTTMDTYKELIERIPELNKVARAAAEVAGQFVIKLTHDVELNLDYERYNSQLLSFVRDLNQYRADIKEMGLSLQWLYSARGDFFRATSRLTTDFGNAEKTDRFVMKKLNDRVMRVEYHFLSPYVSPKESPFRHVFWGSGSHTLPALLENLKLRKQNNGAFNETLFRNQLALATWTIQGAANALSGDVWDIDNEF

B1: CoilR-Cy5: CoilR probe peptide conjugated to Cy5 (conjugate)
peptide: MGGSLEIRAAFLRQRNTALRTEVAELEQEVQRLENEVSQYETRYGPLGGGAAALGC(Cy5)LAAALEHHHHHH
Question: What does the source list for B1?
Answer: Cy5 signal in cells expressing untagged mEmerald constructs [1]: no significant Cy5 signal; labeling of cells expressing untagged TfR1 [2]: no CoilR-Cy5 signal; also recorded: showed now labeling

B2: CoilZ-fluorescein: green fluorescent CoilZ probe peptide, maleimide conjugate (conjugate)
peptide: MGSSQKVAQLKNRVAYKLKENAKLENIVARLENDNANLEKDIANLEKDIANLERDVARGGGAAACLGKLAAALEHHHHHH
Question: What does the source list for B2?
Answer: probe peptide binding to CoilY-mCherry on membrane [3]: specific coiled-coil heterodimer formation could be detected; also recorded: Probe peptide binding was detected; labeling of untagged proteins on membrane [4]: not labeled; least amount of His6-CoilY-mCherry detected [5]: 3 ng

B3: CoilY-AF647: CoilY probe peptide conjugated to AlexaFluor 647 (conjugate)
peptide: MGSSNTVKELKNYIQELEERNAELKNLKEHLKFAKAELEFELAAHKFEGGGAAAC(AF647)LGKLAAALEHHHHHH
modifications: not fully specified
Question: Which cells labeled ([6]; 300 nM probe) does the source give for B3 here?
Answer: 98%

Question: And the “enhancement of protein labeling (AF647 fluorescence)” value ([6]; 500 nM probe, live U-2 OS, gated for EGFP)?
Answer: greater than 40 fold

Question: What about the “homodimerization with CoilY-EGFP-TM” value [7] of the same molecule?
Answer: minimal

Question: And the “non-specific labeling of untagged EGFP-TM” value [8]?
Answer: minimal

Question: And the “labeling time (rapid)” value ([9]; cell-surface CoilZ-GFP/EGFP, live-cell compatible)?
Answer: < 30 min

Question: What about the “labeling of CoilZ-GFP/EGFP (specificity, colocalization)” value ([9]; fluorescence microscopy) of the same molecule?
Answer: target-specific; also recorded: labeled; also recorded: Colocalization; also recorded: specifically label

Question: What about the “homodimerization of CoilY probe with CoilY-GFP/EGFP” value [10] of the same molecule?
Answer: not observed

Question: And the “non-specific labeling of untagged fluorescent proteins” value [11]?
Answer: did not interact; also recorded: No CoilY-AF647 labeling was detected; also recorded: not observed

Question: And the “homodimerization / cross-reactivity of CoilY probe with CoilY-mCherry” value [12]?
Answer: not observed; also recorded: no cross-reactivity
